Source: patent US7778779

Biological target: T1, 19-residue peptide comprising amino acids 788-806 of human HIF-1α, Q16665
T1 chain: DESGLPQLTSYDCEVNAPI

B1: FIH (Factor Inhibiting HIF), human (protein)
chain: MAATAAEAVASGSGEPREEAGALGPAWDESQLRSYSFPTRPIPRLSQSDPRAEELIENEEPVVLTDTNLVYPALKWDLEYLQENIGNGDFSVYSASTHKFLYYDEKKMANFQNFKPRSNREEMKFHEFVEKLQDIQQRGGEERLYLQQTLNDTVGRKIVMDFLGFNWNWINKQQGKRGWGQLTSNLLLIGMEGNVTPAHYDEQQNFFAQIKGYKRCILFPPDQFECLYPYPVHHPCDRQSQVDFDNPDYERFPNFQNVVGYETVVGPGDVLYIPMYWWHHIESLLNGGITITVNFWYKGAPTPKRIEYPLKAHQKVAIMRNIEKMLGEALGNPQEVGPLLNTMIKGRYN
hydroxylation of the peptide (mass spectrometry of HPLC purified material): a mass difference of +8Da of the doubly charged ions, corresponding to +16Da in the peptide (oxygen)
